We go through one sequence from publication PMC8951219.

This series relates to MSA-R2c (p57, major soluble antigen, IPT-domain construct) (Renibacterium salmoninarum). The series can be described thus: plate binding assay with immobilized protein, bound aptamer quantified by qPCR. The settings on record: 20 mM Tris-HCl pH 7.4, room temperature, 1 h; wells coated with 50 uL of 2.5 uM protein, 1% BSA block; aptamer 0.0205-41 nM, heated at 95 C for 5 min; no added …. On the technique in general: Real-time PCR tracks product formation cycle by cycle.

The term Kd denotes the concentration at which binding is half-saturated. Lower therefore signals higher affinity.

In turn, “ATGATACGGCGACCACCTAACCATTTTCACTGTTTGTTTAATATATATAGTTTTATGGTATAGCGTCGTGTAGGGAAAGA [Aptamer-4]” displayed a Kd of 3 nM.
